Experimental data published in the supplement of paper PMC9876800.

Test system: peptide library, one residue held at a place counted from the S/T acceptor
Assay: relative phosphorylation of the sub-library (ratio to the mean residue at this position); higher = residue favoured
How it was run: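 Relative sub-library phosphorylation is a ratio to the mean residue at the same position. Purified recombinant kinases were incubated under kinase-specific conditions with biotinylated degenerate peptide sub-libraries, each fixing one residue at one position around a central Ser/Thr, using 50 μM peptide and 50 μM ATP spiked with γ-32P-ATP for 90 min. Spots captured on streptavidin membranes were phosphorimaged and quantified by densitometry.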

STK38, construct: Full length, human, sequence (Q15208 whole entry, looked up): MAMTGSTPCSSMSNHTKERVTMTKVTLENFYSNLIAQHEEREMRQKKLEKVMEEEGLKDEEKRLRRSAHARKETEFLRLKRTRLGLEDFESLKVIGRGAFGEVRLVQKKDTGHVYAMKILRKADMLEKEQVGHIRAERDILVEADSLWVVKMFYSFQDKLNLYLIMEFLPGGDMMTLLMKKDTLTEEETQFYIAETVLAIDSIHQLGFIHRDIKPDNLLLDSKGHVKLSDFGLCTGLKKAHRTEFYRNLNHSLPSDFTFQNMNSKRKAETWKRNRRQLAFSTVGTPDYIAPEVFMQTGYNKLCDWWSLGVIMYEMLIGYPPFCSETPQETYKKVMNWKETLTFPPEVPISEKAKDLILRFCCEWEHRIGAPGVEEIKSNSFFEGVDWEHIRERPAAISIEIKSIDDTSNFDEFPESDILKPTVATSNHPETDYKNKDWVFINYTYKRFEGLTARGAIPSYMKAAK
STK32B, construct: Full length, human, sequence (Q9NY57 whole entry, looked up): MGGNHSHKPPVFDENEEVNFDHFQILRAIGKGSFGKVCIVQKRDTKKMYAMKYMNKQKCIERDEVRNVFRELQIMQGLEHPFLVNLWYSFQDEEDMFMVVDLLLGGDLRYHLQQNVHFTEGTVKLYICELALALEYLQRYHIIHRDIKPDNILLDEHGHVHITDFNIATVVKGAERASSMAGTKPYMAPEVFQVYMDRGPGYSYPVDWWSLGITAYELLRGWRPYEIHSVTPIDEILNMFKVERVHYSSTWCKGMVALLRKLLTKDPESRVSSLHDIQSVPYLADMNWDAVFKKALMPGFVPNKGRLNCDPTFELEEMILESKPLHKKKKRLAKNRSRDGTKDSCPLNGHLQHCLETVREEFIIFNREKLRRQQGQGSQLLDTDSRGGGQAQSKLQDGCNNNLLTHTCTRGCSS
STK16, construct: Full length, human, sequence (O75716 whole entry, looked up): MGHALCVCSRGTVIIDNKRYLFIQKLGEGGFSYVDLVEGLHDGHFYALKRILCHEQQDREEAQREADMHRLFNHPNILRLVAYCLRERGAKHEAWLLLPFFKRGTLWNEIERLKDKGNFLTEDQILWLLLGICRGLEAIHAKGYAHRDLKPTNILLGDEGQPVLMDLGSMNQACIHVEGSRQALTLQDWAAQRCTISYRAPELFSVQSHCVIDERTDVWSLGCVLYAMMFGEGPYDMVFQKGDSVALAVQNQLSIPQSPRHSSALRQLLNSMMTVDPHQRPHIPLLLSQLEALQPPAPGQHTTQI
STK33, construct: Full length, human, sequence (Q9BYT3 whole entry, looked up): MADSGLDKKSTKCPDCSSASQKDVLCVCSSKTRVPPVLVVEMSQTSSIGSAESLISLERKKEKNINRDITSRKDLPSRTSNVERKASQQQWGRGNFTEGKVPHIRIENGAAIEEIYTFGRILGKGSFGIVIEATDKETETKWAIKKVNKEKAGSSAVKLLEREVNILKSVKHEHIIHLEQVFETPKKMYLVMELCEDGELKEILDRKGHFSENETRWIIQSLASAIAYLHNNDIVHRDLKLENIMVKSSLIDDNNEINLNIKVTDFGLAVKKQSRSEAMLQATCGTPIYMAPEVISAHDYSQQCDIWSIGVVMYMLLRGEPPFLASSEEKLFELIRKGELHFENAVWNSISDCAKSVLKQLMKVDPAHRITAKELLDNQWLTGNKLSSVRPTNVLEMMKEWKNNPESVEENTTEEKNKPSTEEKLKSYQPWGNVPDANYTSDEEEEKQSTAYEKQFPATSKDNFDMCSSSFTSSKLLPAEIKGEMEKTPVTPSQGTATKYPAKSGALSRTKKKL

STK16, construct: Full length, human (from UniProt O75716)
relative phosphorylation
Conditions | at +1 | at +2 | at +3 | at +4 | at -1 | at -2 | at -3 | at -4 | at -5
A fixed | 0.727 | 2.01 | 1.04 | 1 | 0.863 | 1.44 | 0.99 | 1.12 | 1.1
D fixed | 0.32 | 0.668 | 0.537 | 0.519 | 0.334 | 0.409 | 0.474 | 0.885 | 0.694
E fixed | 0.182 | 0.604 | 0.496 | 0.566 | 0.273 | 0.36 | 0.491 | 0.674 | 0.581
F fixed | 0.531 | 0.95 | 0.956 | 0.888 | 0.833 | 0.758 | 0.672 | 1.12 | 0.96
G fixed | 4.33 | 1.26 | 1.66 | 1.23 | 2.16 | 0.83 | 0.808 | 1.13 | 0.953
H fixed | 0.804 | 0.887 | 0.982 | 1.07 | 2.29 | 0.75 | 0.824 | 0.94 | 1.06
I fixed | 0.534 | 0.991 | 0.898 | 0.982 | 0.526 | 1.23 | 1.98 | 0.894 | 0.914
K fixed | 1.08 | 0.844 | 1.36 | 1.16 | 1.4 | 0.569 | 0.854 | 1.06 | 0.99
L fixed | 0.461 | 0.915 | 0.81 | 0.835 | 0.656 | 1.03 | 0.894 | 0.952 | 0.868
M fixed | 0.447 | 0.822 | 0.881 | 0.875 | 0.815 | 1.04 | 0.85 | 0.961 | 0.989
N fixed | 2.13 | 0.787 | 0.897 | 0.746 | 0.737 | 0.509 | 0.701 | 0.798 | 0.875
P fixed | 0.801 | 1.03 | 1.03 | 1.1 | 1.64 | 4.27 | 2.6 | 1.43 | 1.54
Q fixed | 0.522 | 1.19 | 0.974 | 0.999 | 0.71 | 0.676 | 0.829 | 0.849 | 0.96
R fixed | 2.08 | 1.06 | 1.73 | 1.31 | 1.19 | 0.959 | 0.963 | 1.11 | 1.49
V fixed | 0.518 | 1.06 | 0.922 | 0.845 | 0.677 | 0.88 | 1.5 | 0.963 | 0.796
W fixed | 0.999 | 0.849 | 0.853 | 1.59 | 0.813 | 0.601 | 0.74 | 1.09 | 1.13
Y fixed | 0.534 | 1.08 | 0.98 | 1.29 | 1.09 | 0.695 | 0.834 | 1.02 | 1.1
pThr fixed | 0.289 | 0.402 | 0.518 | 0.44 | 0.352 | 2.01 | 0.864 | 0.838 | 0.845
pTyr fixed | 0.242 | 0.36 | 0.605 | 0.544 | 0.276 | 0.401 | 0.468 | 0.658 | 0.65

STK32B, construct: Full length, human (from UniProt Q9NY57)
relative phosphorylation
Conditions | at +1 | at +2 | at +3 | at +4 | at -1 | at -2 | at -3 | at -4 | at -5
A fixed | 0.577 | 0.493 | 0.744 | 0.79 | 0.938 | 0.933 | 0.994 | 1.1 | 1.08
D fixed | 0.363 | 0.882 | 0.608 | 0.539 | 0.556 | 0.56 | 1.54 | 1.15 | 1.08
E fixed | 0.932 | 1.81 | 0.743 | 0.769 | 0.726 | 0.921 | 1.35 | 1.59 | 0.878
F fixed | 2.31 | 0.995 | 1.37 | 0.745 | 0.832 | 1.35 | 0.754 | 0.804 | 0.938
G fixed | 0.389 | 0.269 | 0.43 | 0.849 | 1.26 | 0.739 | 0.909 | 1.24 | 1.19
H fixed | 0.784 | 1.61 | 1.11 | 1.16 | 0.992 | 1.22 | 0.871 | 0.975 | 1.14
I fixed | 1.91 | 0.897 | 1.47 | 1.04 | 0.557 | 0.77 | 0.702 | 0.66 | 0.798
K fixed | 0.75 | 0.796 | 1.1 | 1.84 | 1.32 | 0.656 | 1.05 | 1.1 | 1.35
L fixed | 1.1 | 0.767 | 1.29 | 0.812 | 0.884 | 1.7 | 0.77 | 0.744 | 0.78
M fixed | 2.15 | 0.934 | 1.17 | 0.898 | 1.15 | 1.2 | 0.776 | 0.906 | 0.797
N fixed | 0.545 | 0.704 | 0.659 | 0.828 | 0.878 | 1.02 | 0.941 | 0.983 | 1.03
P fixed | 0.259 | 0.214 | 0.356 | 1.13 | 1.46 | 1.23 | 1.03 | 1.1 | 0.987
Q fixed | 1.01 | 0.86 | 0.826 | 0.864 | 1.03 | 0.88 | 0.753 | 0.88 | 0.88
R fixed | 0.939 | 1.01 | 1.05 | 1.87 | 2.02 | 1.02 | 2.17 | 1.32 | 1.39
V fixed | 1.26 | 0.765 | 1.4 | 0.742 | 0.593 | 0.797 | 0.821 | 0.764 | 0.736
W fixed | 0.713 | 1.39 | 1.41 | 1.14 | 0.634 | 0.755 | 0.65 | 0.784 | 0.844
Y fixed | 1 | 2.61 | 1.24 | 0.989 | 1.16 | 1.25 | 0.915 | 0.903 | 1.11
pThr fixed | 1.12 | 2.27 | 3.42 | 1.86 | 1.03 | 1.74 | 9.83 | 2.88 | 1.67
pTyr fixed | 2.4 | 63.9 | 6.44 | 10.7 | 1.72 | 7.31 | 2.44 | 1.38 | 1.77

STK33, construct: Full length, human (from UniProt Q9BYT3)
relative phosphorylation
Conditions | at +1 | at +2 | at +3 | at +4 | at -1 | at -2 | at -3 | at -4 | at -5
A fixed | 0.409 | 0.63 | 0.576 | 0.702 | 0.899 | 0.84 | 0.905 | 1.03 | 1.17
D fixed | 0.151 | 0.26 | 0.433 | 0.754 | 0.393 | 0.433 | 0.344 | 0.723 | 0.731
E fixed | 0.158 | 0.243 | 0.451 | 0.951 | 0.572 | 0.411 | 0.355 | 0.681 | 0.709
F fixed | 1.25 | 1.85 | 1.22 | 0.842 | 0.653 | 1.95 | 1.53 | 0.855 | 0.849
G fixed | 0.327 | 0.41 | 0.743 | 1.03 | 0.676 | 0.987 | 1.08 | 1.23 | 1.43
H fixed | 0.745 | 1.82 | 1.31 | 1.12 | 0.933 | 1.39 | 1.07 | 1.19 | 1.25
I fixed | 1.33 | 0.956 | 0.804 | 0.992 | 0.574 | 0.549 | 0.683 | 0.661 | 0.6
K fixed | 2.18 | 0.815 | 2.01 | 1.41 | 2.59 | 0.826 | 0.921 | 1.39 | 1.72
L fixed | 0.893 | 0.654 | 0.657 | 0.801 | 0.812 | 0.865 | 1.62 | 0.77 | 0.603
M fixed | 1.36 | 0.871 | 0.756 | 0.914 | 1.14 | 0.99 | 1.42 | 0.836 | 0.653
N fixed | 0.578 | 0.59 | 0.655 | 0.917 | 0.978 | 1.32 | 0.724 | 1.02 | 1.11
P fixed | 0.217 | 0.394 | 0.564 | 1.38 | 0.306 | 0.43 | 0.915 | 0.924 | 1.12
Q fixed | 1.23 | 0.53 | 0.661 | 0.994 | 1.33 | 0.786 | 0.836 | 0.823 | 0.856
R fixed | 3.13 | 1.16 | 2.98 | 1.28 | 2.9 | 1.34 | 1.66 | 1.42 | 1.5
V fixed | 1.29 | 0.796 | 0.721 | 0.835 | 0.747 | 0.568 | 0.555 | 0.585 | 0.613
W fixed | 0.768 | 1.8 | 1.23 | 1.21 | 0.557 | 1.73 | 1.23 | 1.98 | 1.22
Y fixed | 0.988 | 3.23 | 1.24 | 0.882 | 0.943 | 1.59 | 1.16 | 0.886 | 0.869
pThr fixed | 0.683 | 0.937 | 1.23 | 1.3 | 0.439 | 0.702 | 1.14 | 1.05 | 1.24
pTyr fixed | 0.677 | 11.7 | 1.91 | 1.8 | 0.918 | 0.887 | 1.02 | 0.779 | 1.13

STK38, construct: Full length, human (from UniProt Q15208)
relative phosphorylation
Conditions | at +1 | at +2 | at +3 | at +4 | at -1 | at -2 | at -3 | at -4 | at -5
A fixed | 0.75 | 1.35 | 0.73 | 0.791 | 0.743 | 0.739 | 0.655 | 0.978 | 0.83
D fixed | 0.673 | 1.2 | 0.723 | 1.06 | 0.728 | 0.6 | 0.558 | 0.704 | 0.609
E fixed | 0.644 | 0.483 | 0.631 | 0.807 | 0.524 | 0.494 | 0.476 | 0.71 | 0.477
F fixed | 0.893 | 0.79 | 1.04 | 0.894 | 0.545 | 0.758 | 0.413 | 0.596 | 0.557
G fixed | 1.36 | 1.33 | 1.23 | 1.16 | 1.45 | 0.936 | 0.771 | 1.09 | 0.88
H fixed | 1.04 | 2.51 | 1.3 | 1.03 | 1.18 | 1.56 | 1.35 | 1.26 | 3.01
I fixed | 1.07 | 0.495 | 0.738 | 0.891 | 0.325 | 0.38 | 0.31 | 0.575 | 0.498
K fixed | 0.845 | 0.783 | 1.12 | 1.13 | 1.94 | 2.24 | 2.21 | 2.17 | 2.44
L fixed | 0.932 | 0.516 | 1.02 | 0.897 | 0.752 | 0.451 | 0.377 | 0.618 | 0.546
M fixed | 1.59 | 0.575 | 0.831 | 0.929 | 0.751 | 0.571 | 0.455 | 0.745 | 0.477
N fixed | 1.13 | 1.11 | 0.954 | 1.16 | 1.34 | 1.23 | 0.841 | 0.878 | 0.795
P fixed | 0.335 | 0.69 | 0.872 | 1.28 | 1.65 | 0.83 | 1.18 | 1.04 | 0.749
Q fixed | 1.15 | 0.982 | 0.938 | 1.12 | 1.17 | 0.974 | 0.886 | 0.966 | 0.737
R fixed | 1.06 | 0.87 | 1.27 | 1.1 | 1.61 | 3.03 | 4.9 | 2.46 | 2.35
V fixed | 0.965 | 1.01 | 0.729 | 0.835 | 0.477 | 0.421 | 0.35 | 0.6 | 0.542
W fixed | 1.4 | 1.32 | 1.59 | 1.05 | 0.777 | 1.05 | 0.637 | 0.884 | 0.867
Y fixed | 1.18 | 0.992 | 1.29 | 0.865 | 1.03 | 0.727 | 0.636 | 0.733 | 0.636
pThr fixed | 1.01 | 0.848 | 0.709 | 0.92 | 0.546 | 0.635 | 0.572 | 0.738 | 0.545
pTyr fixed | 0.731 | 0.745 | 0.819 | 0.623 | 0.559 | 0.525 | 0.613 | 0.547 | 0.515
